Experimental data taken from patent CN112538115A (BIOSION BIO TECH NANJING CO LTD, dated 2021).

Target: T1, 人BCMA-His抗原 (ACRO, Cat#BCA-H522y) (human, UniProt Q02223 1-54)
T1 construct: Bought reagent; Coated on the ELISA plate at 2 ug/ml; also called 人BCMA蛋白; 人BCMA抗原; not shown: His tag
T1 sequence (looked up): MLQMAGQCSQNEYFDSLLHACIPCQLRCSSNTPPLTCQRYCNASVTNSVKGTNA
Assay: indirect ELISA, human BCMA-His coated at 2 ug/ml, detection with HRP goat anti-human Fc gamma

B1: BCMA-VHH-1F7纳米抗体 (抗人BCMA纳米抗体, 含有Fc tag) (Fc fusion)
chain: EVQLVESGGGLVQAGGSLRLSCAASGGTFNNDNVGWFRQAPGKEREFVAVISWRGDGTDYADSVKGRFTISRDYAKKMVYLQMNSLQPKDTAVYYCAVGDGSRWHGAYAYWGQGTRVTVSS
notes: Expressed in Expi293F cells with an Fc tag and purified on Protein A or G; detected with anti-human Fc gamma, about 35 kDa on SDS-PAGE; also called 抗BCMA纳米抗体; not shown: Fc tag
B1: binds.
